From the supplement of paper PMC10724198
± gives the standard deviation of the averaged measurements.

Assays:
[1] = test system: Saccharomyces cerevisiae; test: protein stability index of tFT-peptide fusion (C-terminal peptide) (PSI (0-1 scale)); higher = more stable (slower turnover)
Experimental: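 MPS profiling in S. cerevisiae of the tFT-X12 degron library: putative degron peptides plus stable controls, 12 aa, fused to the C-terminus of a sfGFP-mCherry timer. Cells are FACS-sorted into 8 mCherry/sfGFP bins and deep-sequenced. PSI runs from 0 (unstable) to 1 (stable). Backgrounds are wild type, das1Δ and doa10Δ at 30 °C, and wild type, das1Δ, cdc34-1 and cdc53-1 at 37 °C; 2-3 technical replicates each.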

[2] = test system: Saccharomyces cerevisiae; test: as above; conditions: genetic background: wild type; temperature: 30 C
[3] = genetic background: cdc34-1, temperature: 37 C
[4] = genetic background: cdc53-1, temperature: 37 C
[5] = genetic background: das1 deletion, temperature: 30 C
[6] = genetic background: das1 deletion, temperature: 37 C
[7] = genetic background: doa10 deletion, temperature: 30 C
[8] = genetic background: wild type, temperature: 30 C
[9] = genetic background: wild type, temperature: 37 C
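Also: PSI is a weighted mean of sequencing reads over stability bins, variants kept only with over 10 reads, mCherry proximal and sfGFP distal, peptide attached via GGGS linker.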

Row | Sequence | protein stability index [1, 3] | protein stability index [1, 4] | protein stability index [1, 5] | protein stability index [1, 6] | protein stability index [1, 7] | protein stability index [1, 8] | protein stability index [1, 9] | protein stability index [2]
1 | VSFFCLICRVYP | 0.371 ± 0.0078 | 0.4463 ± 0.0044 | 0.317 ± 0.033 | 0.4808 ± 0.0037 | 0.298 ± 0.008 | 0.313 ± 0.012 | 0.417 ± 0.039 | 0.434 ± 0.099
2 | VSIRVVVWVSWG | 0.133 ± 0.0081 | 0.2248 ± 0.00098 | 0.145 ± 0.022 | 0.259 ± 0.011 | 0.121 ± 0.0089 | 0.143 ± 0.02 | 0.223 ± 0.013 | 0.226 ± 0.032
3 | VSLHVFVFLLAS | 0.255 ± 0.02 | 0.347 ± 0.0036 | 0.249 ± 0.025 | 0.4219 ± 0.0024 | 0.189 ± 0.012 | 0.239 ± 0.027 | 0.378 ± 0.0044 | 0.309 ± 0.043
4 | VSLIYKTIKNRV | 0.6704 ± 0.0033 | 0.732 ± 0.0082 | 0.595 ± 0.03 | 0.726 ± 0.063 | 0.396 ± 0.049 | 0.397 ± 0.015 | 0.6009 ± 0.001 | 0.517 ± 0.057
5 | VSLSEVAIIVHG | 0.544 ± 0.025 | 0.611 ± 0.0098 | 0.418 ± 0.035 | 0.596 ± 0.014 | 0.391 ± 0.022 | 0.426 ± 0.022 | 0.5739 ± 0.0012 | 0.517 ± 0.026
6 | VSWWRGVYVVLF | 0.503 ± 0.019 | 0.5319 ± 0.00099 | 0.388 ± 0.031 | 0.566 ± 0.0089 | 0.342 ± 0.013 | 0.357 ± 0.018 | 0.526 ± 0.023 | 0.518 ± 0.039
7 | VTEGMKEVIKQI | 0.647 ± 0.014 | 0.702 ± 0.026 | 0.629 ± 0.044 | 0.728 ± 0.013 | 0.3751 ± 0.00062 | 0.402 ± 0.038 | 0.6073 ± 0.0042 | 0.482 ± 0.0079
8 | VVDIFLFFLFVC | 0.171 ± 0.0036 | 0.192 ± 0.027 | 0.243 ± 0.013 | 0.351 ± 0.021 | 0.186 ± 0.0069 | 0.145 ± 0.0086 | 0.216 ± 0.048 | 0.203 ± 0.015
9 | VVFVFIDLGLCV | 0.187 ± 0.0053 | 0.326 ± 0.035 | 0.243 ± 0.028 | 0.423 ± 0.0072 | 0.188 ± 0.019 | 0.223 ± 0.018 | 0.4359 ± 0.0027 | 0.266 ± 0.007
10 | VVFVRLGWMRAC | 0.441 ± 0.034 | 0.52 ± 0.017 | 0.43 ± 0.03 | 0.59 ± 0.018 | 0.0904 ± 0.01 | 0.0972 ± 0.021 | 0.112 ± 0.0058 | 0.172 ± 0.046
11 | VVGILVLASWDL | 0.184 ± 0.011 | 0.321 ± 0.058 | 0.264 ± 0.041 | 0.426 ± 0.019 | 0.196 ± 0.0056 | 0.225 ± 0.029 | 0.373 ± 0.017 | 0.376 ± 0.045
12 | VVLWTFLLEVSA | 0.0259 ± 0.011 | 0.0344 ± 0.0033 | 0.0674 ± 0.015 | 0.0951 ± 0.0053 | 0.0508 ± 0.019 | 0.0755 ± 0.033 | 0.101 ± 0.014 | 0.134 ± 0.034
13 | VVLWVVCWGCWK | 0.237 ± 0.05 | 0.339 ± 0.021 | 0.215 ± 0.038 | 0.432 ± 0.024 | 0.179 ± 0.015 | 0.205 ± 0.029 | 0.421 ± 0.021 | 0.328 ± 0.027
14 | VVSLAVVGRFLV | 0.616 ± 0.061 | 0.7 ± 0.011 | 0.586 ± 0.024 | 0.7 ± 0.031 | 0.118 ± 0.018 | 0.147 ± 0.018 | 0.263 ± 0.03 | 0.2243 ± 0.0017
15 | VVVFRWTCWLLV | 0.0544 ± 0.005 | 0.144 ± 0.023 | 0.0835 ± 0.013 | 0.245 ± 0.0041 | 0.0257 ± 0.014 | 0.0385 ± 0.011 | 0.06333 ± 0.00029 | 0.0581 ± 0.028
16 | VWSCILPMVYVW | 0.111 ± 0.066 | 0.109 ± 0.0066 | 0.156 ± 0.022 | 0.1639 ± 0.00068 | 0.135 ± 0.016 | 0.158 ± 0.0067 | 0.157 ± 0.011 | 0.203 ± 0.0046
17 | VWWWGAVGWLMV | 0.572 ± 0.036 | 0.602 ± 0.028 | 0.528 ± 0.026 | 0.628 ± 0.016 | 0.392 ± 0.017 | 0.416 ± 0.018 | 0.547 ± 0.01 | 0.454 ± 0.0008
18 | WCVRRVRFVMGC | 0.414 ± 0.019 | 0.458 ± 0.05 | 0.316 ± 0.024 | 0.479 ± 0.0081 | 0.2183 ± 0.0013 | 0.234 ± 0.027 | 0.378 ± 0.013 | 0.31 ± 0.0046
19 | WFLVFLRVGDGP | 0.539 ± 0.01 | 0.566 ± 0.0072 | 0.362 ± 0.027 | 0.6 ± 0.0068 | 0.353 ± 0.039 | 0.378 ± 0.023 | 0.545 ± 0.016 | 0.474 ± 0.01
